± gives the standard deviation.
Test: protein stability index of a GFP-peptide fusion (GPS, HEK-293T) (PSI 1-6); higher = more stable
[1] = treatment: DMSO, c terminus: a fixed tail appended
[2] = treatment: MLN4924 1 uM, 8 h, c terminus: a fixed tail appended
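Also: 24-mer peptide tiles fused after GFP, lentivirally expressed, FACS-sorted into six equal bins by GFP/DsRed ratio, decoded by Illumina sequencing, PSI is the read-weighted mean bin number.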

| Sequence | protein stability index [1] | protein stability index [2] | protein stability index (treatment: DMSO, c terminus: native) | protein stability index (treatment: MLN4924 1 uM, 8 h, c terminus: native) |
| --- | --- | --- | --- | --- |
| KFYPPDPAQLSEDITRYYLCLQLR [EPB41L3] | 2.49 ± 0.048 | 2.48 ± 0.87 |  |  |
| KDVLRYGEEQLKTHKKCKEEVVST [FCHO1] | 4.85 ± 0.13 | 4.78 ± 0.19 |  |  |
| CFKGELPLRAVHINLEEKEKQIRS [PLEKHN1] | 3.95 ± 0.18 | 3.96 ± 0.33 |  |  |
| PTICMAYLMKTKQFRLKEAFDYIK [DUSP5] | 2.27 ± 0.47 | 2.54 ± 0.31 |  |  |
| MWKFVSPLCMAVLTTASIIQLGVT [SLC6A17] | 3.21 ± 0.58 | 2.87 ± 0.49 |  |  |
| VLGIPLTLVMFQSLGERMNTFVRY [KCNK9] | 3.24 ± 0.65 | 2.83 ± 0.48 |  |  |
| VFSDTATPDIKSHYAFRIFDFDDD [CIB1] | 3.19 ± 0.27 | 3.18 ± 0.42 |  |  |
| DPNTAAGWLSVSDDLTSVTNHGYR [TRIM35] | 4.32 ± 0.15 | 4.31 ± 0.13 |  |  |
| SMTAGVSEREANDALNAYVCKGLP [INTS3] | 4.37 ± 0.16 | 4.38 ± 0.14 |  |  |
| SSRDKLTEMAASSQGNFEGNFESL [FUNDC2] | 4.88 ± 0.28 | 5.03 ± 0.42 |  |  |
| RQVRDKTLKRGYFQKSLVLISKLP [DENND6A] | 2.27 ± 0.15 | 2.36 ± 0.41 |  |  |
| YRTVVRPTYKVMYKIVTAREWRCC [EMID1] | 2.71 ± 0.79 | 2.38 ± 0.44 |  |  |
| LASLGASEEAVQKLATCYFFTVEF [TPH1] | 2.98 ± 0.52 | 2.73 ± 0.66 |  |  |
| EEEDLRRRLKYFFMSPCDKFRAKG [MCOLN1] | 2.65 ± 0.41 | 3.15 ± 0.5 |  |  |
| GDSGFLVVRGGEVVHRSDEQQHYF [PPTC7] | 3.75 ± 0.41 | 3.54 ± 0.23 |  |  |
| EPSSPASLTDSVNHHSPGGSSDAS [ESRRG] | 5.47 ± 0.15 | 5.51 ± 0.15 |  |  |
| LQFEAEMARLQEEHGDQLLSIRCQ [MTUS2] | 3.99 ± 0.12 | 3.92 ± 0.51 |  |  |
| QKVATLEKRNRQLRERVKKVKRSL [CCDC3] | 4.08 ± 0.2 | 4.89 ± 0.11 |  |  |
| KLNLCEDGPCHKRRASICCTQLGS [SCARA5] | 3.12 ± 0.2 | 3.3 ± 0.27 |  |  |
| NQMKERQGLFFDMEAYLPKKNGLY [TMEM120A] | 2.65 ± 0.077 | 2.73 ± 0.15 |  |  |
| SEEDGEARTQMILLRRSVEGASSD [PHTF1] | 5.18 ± 0.21 | 5.23 ± 0.12 |  |  |
| MSCRDRTQEFLSACKSLQTRQNGI [STX5] | 3.1 ± 0.21 | 3.1 ± 0.36 |  |  |

| Sequence | protein stability index [1] | protein stability index [2] | protein stability index (treatment: DMSO, c terminus: native) | protein stability index (treatment: MLN4924 1 uM, 8 h, c terminus: native) |
| --- | --- | --- | --- | --- |
| LLYTSLPDFCHKFLPGYVGGIQEG [DHCR7] | 2.58 ± 0.58 | 2.71 ± 0.63 |  |  |
| CETVTCCLFSERDAAGAPRDASDP [SMAD6] | 4.49 ± 0.25 | 4.62 ± 0.12 |  |  |
| LQDIKTAGPQSQVLCGVVMDRSLV [ADD1] | 2.98 ± 0.22 | 2.91 ± 0.19 |  |  |
| SPWADGTPCGPAQACMGGRCLHMD [ADAMTS4] | 4.28 ± 0.21 | 4.47 ± 0.36 |  |  |
| DDVLPWRRTAENKLDTKYPYVCHA [DCTD] | 3.331 ± 0.026 | 3.31 ± 0.39 |  |  |
| PNLVNLIEVFRRKRKMHLVFEYCD [CDKL4] | 2.06 ± 0.64 | 2.07 ± 0.3 |  |  |
| DGKRVIVVFHCEFSSERGPRMCRY [CDC25A] | 2.64 ± 0.53 | 2.73 ± 0.78 |  |  |
| ALVAAGGAPEDDEEDDGRGRGLLR [DENND6A] | 5.5 ± 0.15 | 5.33 ± 0.14 |  |  |
| AWPFYKPVDAEALELHDYHDIIKH [BRD3] | 3.04 ± 0.17 | 3.24 ± 0.35 |  |  |
| CLGQLNLEQRSESVRRTRSKIGFG [SMAD6] | 3.06 ± 0.25 | 3.1 ± 0.35 |  |  |
| LIWVVGPVLAVVFIICIVIAILLY [PTPRD] | 2.35 ± 0.21 | 2.15 ± 0.29 |  |  |
| GERVAARGYWGDIATGPFVAFGIE [DNAAF3] | 2.05 ± 0.3 | 2.35 ± 0.28 |  |  |
| AVNLIESGACGAFVHGLEDEMYEV [INTS4] | 3.41 ± 0.24 | 3.45 ± 0.33 |  |  |
| PQAPPASRDEAALPELLLGALPVG [RETREG3] | 4.64 ± 0.087 | 4.67 ± 0.16 |  |  |
| PAVDLNQVLNETRNQYEALVETNR [KRT33B] | 3.39 ± 0.36 | 3.87 ± 0.74 |  |  |
| EGYTWRVAQLEDRRSTTDLRGTQF [ZSWIM9] | 3.37 ± 0.55 | 3.28 ± 0.24 |  |  |
| PKYQLFVPQLVTGRCATRAFHRKS [RNF180] | 2.14 ± 0.34 | 2.21 ± 0.28 |  |  |
| MADVINVSVNLEAFSQAISAIQAL [MED27] | 2.38 ± 0.72 | 2.23 ± 0.17 |  |  |
| ALRNFACLTTGDVIAINYNEKIYE [UFD1] | 2.21 ± 0.49 | 2.29 ± 0.46 |  |  |
| QKITAIITFPSLESCEEKNQLILT [WDR41] | 2.29 ± 0.16 | 2.22 ± 0.26 |  |  |
| GALGMSNRDSYFYAAIVAVVAVHV [VMA21] | 2.77 ± 0.45 | 2.81 ± 0.22 |  |  |
| PNRVLAPEQSLKKTKTSEYPIIFV [SPANXN3] | 2.22 ± 0.17 | 2.12 ± 0.34 |  |  |

| Sequence | protein stability index [1] | protein stability index [2] | protein stability index (treatment: DMSO, c terminus: native) | protein stability index (treatment: MLN4924 1 uM, 8 h, c terminus: native) |
| --- | --- | --- | --- | --- |
| QILLEWCRSKTLGYQHVDLQNFSS [SMTNL2] | 2.72 ± 0.56 | 2.49 ± 0.43 |  |  |
| TQEPIFTFTASFSGKVFPFFAVWK [TRIM15] | 3.19 ± 0.36 | 2.89 ± 0.66 |  |  |
| GTPGPFTKEGGMLAYYEVCSWKGA [CHIT1] | 2.47 ± 0.17 | 2.55 ± 0.55 |  |  |
| GNDRRREWAALGNMSKEDAMVEFV [ACBD3] | 4.11 ± 0.24 | 4.3 ± 0.26 |  |  |
| KQYKAVVYSNTIQSIIAIIRAMGR [GNAI1] | 1.95 ± 0.32 | 2.21 ± 0.052 |  |  |
| TENRYCVQLSQIQGLIGSVEEQLA [KRT17] | 3.1 ± 0.51 | 3.24 ± 0.22 |  |  |
| MSLEPQNGTYAGPAPAFQPFFFTG [ANKRD40] | 2.29 ± 0.35 | 2.15 ± 0.31 |  |  |
| REEEKTFWKKYRTFWKEDKAFWKE [CCDC70] | 2.57 ± 0.2 | 2.75 ± 0.22 |  |  |
| EKTFWKEEKSFWEMEKSFREEEKT [CCDC70] | 4.62 ± 0.23 | 4.82 ± 0.26 |  |  |
| RLLQEEDRRKKIARMGFNASSMLR [DCAF4] | 2.52 ± 0.22 | 2.57 ± 0.25 |  |  |
| VNKVCGAACSSKRSPIIDVKNDRD [SERPINB5] | 3.77 ± 0.33 | 3.89 ± 0.15 |  |  |
| ELNKQVVSSSEQLQSYQAEIIELR [KRT33B] | 3.76 ± 0.3 | 3.99 ± 0.34 |  |  |
| SRRYTEMALPFFSLAEVRVGYQSQ [MYORG] | 2.3 ± 0.16 | 2.29 ± 0.039 |  |  |
| FTLNPDKKTCRRINYCALNKPGCE [MATN2] | 2.64 ± 0.64 | 2.96 ± 0.45 |  |  |
| DLSDLLQVDSLRPASFPTWGCDLG [BRF1] | 2.53 ± 0.28 | 2.73 ± 0.31 |  |  |
| LYWTKWYNNQSLGHGSHSFIYYEN [PKD2L1] | 2.53 ± 0.68 | 2.41 ± 0.47 |  |  |
| SSRSTVPTPAKRRSSALWSEMLDI [NET1] | 2.62 ± 0.25 | 2.96 ± 0.46 |  |  |
| VDADAGHNAWLSYSLLPQSTAPGL [PCDHGC5] | 2.87 ± 0.33 | 3 ± 0.26 |  |  |
| NNVVPIHVPPTTENKPKVQCCQNI [RAB11A] | 4.56 ± 0.15 | 4.57 ± 0.21 |  |  |
| DDTETVPSEQSHASGKLRKKKKKQ [TCF25] | 5.52 ± 0.44 | 5.88 ± 0.17 |  |  |
| VLYLMMPIVNISEVLGPLCLMLLM [PHTF1] | 3.07 ± 0.62 | 2.67 ± 0.47 |  |  |
| ILFVNSEFETLYNEHKSCEEKSVK [CLK3] | 2.74 ± 0.25 | 3.05 ± 0.3 |  |  |

| Sequence | protein stability index [1] | protein stability index [2] | protein stability index (treatment: DMSO, c terminus: native) | protein stability index (treatment: MLN4924 1 uM, 8 h, c terminus: native) |
| --- | --- | --- | --- | --- |
| PPEPLSQVSMWDQRWQDHQPLLPI [APBB1IP] | 2.76 ± 0.75 | 3.72 ± 1.1 |  |  |
| YLQKIEEFAEMVEREEEDDALDSE [KCNG1] | 5 ± 0.51 | 5.15 ± 0.17 |  |  |
| HTQAENAEFMRNFQKGQVTRDGFK [HMOX1] | 4.5 ± 0.17 | 4.54 ± 0.23 |  |  |
| KKAIKDLGISPSTCSFNPGVIVAN [GLT8D2] | 2.95 ± 0.11 | 2.87 ± 0.43 |  |  |
| FFHCYCPVGFGRRTDPNGDYIRRY [CRY1] | 2.4 ± 0.048 | 2.34 ± 0.42 |  |  |
| EGSSQEDEDLGLSEGSSQDSGED [SPANXN3] |  |  | 5.55 ± 0.24 | 5.56 ± 0.19 |
| GVSALCAICGDRATGKHYGASSCD [HNF4A] | 3.6 ± 0.2 | 3.75 ± 0.45 |  |  |
| LKTGNSSPGIGAVYLANQAKNQSD [RTP4] | 3.82 ± 0.14 | 3.97 ± 0.19 |  |  |
| VQQDPALSSNREAHQHRDKMQQSK [CSNK1G3] | 5.16 ± 0.54 | 5.27 ± 0.21 |  |  |
| KKEESGRERKKNWGGQEDREPAGR [PBXIP1] | 5.16 ± 0.14 | 5.33 ± 0.26 |  |  |
| PNYTMEGERPEEGVAGGLNRNQGL [TCF25] | 5.22 ± 0.15 | 5.22 ± 0.37 |  |  |
| YYIDDVFHALVREIRRKEKEAVLA [RIT1] | 2.27 ± 0.32 | 1.94 ± 0.53 |  |  |
| HVTVENVQELLPAACLLQLKGVKQ [KLHL12] | 2.96 ± 0.33 | 3.15 ± 0.11 |  |  |
| AVVVLDQGSRHWQKLREESAARVV [DUSP5] | 2.85 ± 0.34 | 2.72 ± 0.23 |  |  |
| LMAGCIQEARERWNFDFVTETPLE [CDKN1A] | 2.84 ± 0.67 | 2.92 ± 0.33 |  |  |
| SCEEVAASSASLEPMWSGSTMRRM [EMID1] | 4.09 ± 0.3 | 4.35 ± 0.18 |  |  |
| PSPPPGSHYTSPSENMWNTGSTYN [CARM1] | 3.8 ± 0.43 | 3.81 ± 0.23 |  |  |
| SGAEGHSHSCYHDTRSGFWYVCRT [TRIM35] | 2.45 ± 0.17 | 2.64 ± 0.24 |  |  |
| ERCLSCILAQQPDRLRDEELAELE [TRADD] | 4.41 ± 0.39 | 4.19 ± 0.51 |  |  |
| AADIVNFLTVGSVLQMWHIVDKCT [ZBTB22] | 3.24 ± 0.88 | 3.65 ± 0.2 |  |  |
| WELVVLGKLKWNLAAVTPHDFIEH [CCND2] | 2.7 ± 0.71 | 2.62 ± 0.39 |  |  |
| TLHQRTHTEERPFKCNYCGKSFRQ [ZNF449] | 2.55 ± 0.33 | 2.91 ± 0.51 |  |  |
